The values that follow come from paper PMC2815101.

Data set [1] has as its system CO/N=C(\C(=O)N[C@@H]1C(=O)N2C(C(=O)O)=C(COC(C)=O)CS[C@H]12)c1csc(N)n1. Description: Michaelis-Menten hydrolysis kinetics, purified enzyme. The class given is biochemical, Escherichia coli. The conditions noted are these: active site (catalytic Ser64).
Data set [2] concerns CC(=O)OCC1=C(C(=O)O)N2C(=O)[C@@H](NC(=O)Cc3cccs3)[C@H]2SC1. The description is as above. The format is biochemical, Escherichia coli. The following applies: active site (catalytic Ser64).

What is called Km is the substrate concentration at which the rate is half of its maximum. What is called kcat is the number of substrate molecules converted per active site and unit of time at saturation. Consider “AmpC β-lactamase (Escherichia coli K-12; E235K)”, for which, in data set [1], the Michaelis constant (Km) came to 77 µM and the kcat is 6.9 s⁻¹. Further, in data set [2], the Km amounted to 24 µM and the turnover number (kcat) is 84.6 s⁻¹.
For the substance “AmpC β-lactamase (Escherichia coli K-12; T86I)”, in data set [1], the Km is 295 µM and the turnover number (kcat) is 9.2 s⁻¹.
